Reference: article PMC5733061

Legend:
[1] = tested on: EcFadR (Escherichia coli); assay: SPR; conditions: SPR: 20 mM Tris-HCl pH 7.5, 200 mM NaCl, 0.005% Tween 20, 25 C, protein 31.25-1000 nM; EMSA: binding buffer composition not given, room temperature, 5 pmol …
[2] = tested on: ValFadR (Vibrio alginolyticus); assay: SPR; conditions: SPR: 20 mM Tris-HCl pH 7.5, 200 mM NaCl, 0.005% Tween 20, 25 C, protein 31.25-1000 nM; EMSA: binding buffer composition not given, room temperature, 5 pmol …

fabA probe (SPR) showed a Kd [1] of 0.559 µM and a Kd [2] of 0.258 µM.
